Literature values as cited in paper PMC8508339.

What was measured:
[1] = molecular target: cholecystokinin (Homo sapiens) (UniProt P06307)
[2] = molecular target: gastrin (Homo sapiens) (UniProt P01350)
UniProt P01350, sequence (P01350 whole entry, looked up): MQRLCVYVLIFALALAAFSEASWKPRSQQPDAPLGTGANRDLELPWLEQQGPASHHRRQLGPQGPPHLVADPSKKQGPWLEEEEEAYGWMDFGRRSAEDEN

UniProt P06307, sequence (P06307 whole entry, looked up): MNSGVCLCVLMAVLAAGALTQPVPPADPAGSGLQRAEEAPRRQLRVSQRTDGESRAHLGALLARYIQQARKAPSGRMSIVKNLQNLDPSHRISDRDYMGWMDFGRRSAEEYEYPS

Kd [1]: 1 nM
Kd [2]: 1 nM
Substance: CCK-B receptor (CCK2) (from UniProt P32239)
